Data: publication PMC3229523, “Identification of Lactoferricin B Intracellular Targets Using an Escherichia coli Proteome Chip” (PLoS ONE, 2011)
Ends that are not written are not given here. * marks the point of attachment. Biotin = O=C1N[C@H]2[C@H](CS[C@H]2CCCCC(=O)*)N1

Key:
Experiment in all cases: peptide or protein array; E. coli proteome chip: purified His-tagged proteins printed in duplicate on Fullmoon slides, blocked with 1% BSA; 10 nM N-terminal biotinylated LfcinB with 1% BSA, room temperature, 1 h; detected with DyLight 649-labeled streptavidin, ratio to DyLight 549-labeled anti-His antibody; ProCAT normalisation, local cut-off; triplicate chips
Settings in all cases: both partners purified
[1] = target: RplW (E. coli K-12, UniProt P0ADZ0 1-100)
[2] = target: T1, YciW (E. coli K-12, UniProt P76035 1-375)
T1 construct: YciW, E. coli K-12
T1 sequence (looked up): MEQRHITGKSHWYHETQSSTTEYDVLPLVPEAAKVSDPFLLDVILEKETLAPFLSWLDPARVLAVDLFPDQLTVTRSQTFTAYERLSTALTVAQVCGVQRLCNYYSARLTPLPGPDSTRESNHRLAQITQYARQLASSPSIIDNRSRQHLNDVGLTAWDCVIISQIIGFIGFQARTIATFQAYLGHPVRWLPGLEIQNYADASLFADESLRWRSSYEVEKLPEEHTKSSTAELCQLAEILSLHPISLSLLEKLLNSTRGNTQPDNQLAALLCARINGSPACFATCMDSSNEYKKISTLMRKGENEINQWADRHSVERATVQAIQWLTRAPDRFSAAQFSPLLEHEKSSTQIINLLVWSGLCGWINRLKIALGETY

[3] = target: T2, SoxR (E. coli K-12, UniProt P0ACS2 1-154)
T2 construct: SoxR, E. coli K-12
T2 sequence (looked up): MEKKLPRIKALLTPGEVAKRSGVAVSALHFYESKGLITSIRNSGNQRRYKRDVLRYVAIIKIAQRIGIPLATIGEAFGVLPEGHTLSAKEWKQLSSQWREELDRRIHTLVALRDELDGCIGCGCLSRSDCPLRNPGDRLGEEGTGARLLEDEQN

[4] = target: T3, YobG (E. coli K-12, UniProt P64512 1-47)
T3 construct: YobG, E. coli K-12
T3 chain (looked up): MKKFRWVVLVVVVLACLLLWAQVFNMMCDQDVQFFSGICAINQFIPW

[5] = target: T4, HisA (E. coli K-12, UniProt P10371 1-245)
T4 construct: HisA, E. coli K-12

[6] = target: T5, YfbO (E. coli K-12, UniProt P76485 1-140)
T5 construct: YfbO, E. coli K-12
T5 sequence (looked up): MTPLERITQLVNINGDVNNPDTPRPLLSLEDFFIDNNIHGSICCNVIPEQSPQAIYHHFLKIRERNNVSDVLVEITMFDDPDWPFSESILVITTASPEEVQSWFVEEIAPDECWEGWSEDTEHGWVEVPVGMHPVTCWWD

[7] = target: T6, YcgK (E. coli K-12, UniProt P76002 23-133)
T6 construct: YcgK, E. coli K-12
T6 sequence (looked up): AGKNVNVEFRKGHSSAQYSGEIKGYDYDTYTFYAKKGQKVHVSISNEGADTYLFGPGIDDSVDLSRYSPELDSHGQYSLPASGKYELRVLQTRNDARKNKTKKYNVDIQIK

[8] = target: T7, GlgS (E. coli K-12, UniProt P26649 1-66)
T7 construct: GlgS, E. coli K-12
T7 sequence (looked up): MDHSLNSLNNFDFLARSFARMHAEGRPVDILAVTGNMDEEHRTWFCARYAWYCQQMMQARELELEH

[9] = target: T8, HyaE (E. coli K-12, UniProt P19931 1-132)
T8 construct: HyaE, E. coli K-12
T8 sequence (looked up): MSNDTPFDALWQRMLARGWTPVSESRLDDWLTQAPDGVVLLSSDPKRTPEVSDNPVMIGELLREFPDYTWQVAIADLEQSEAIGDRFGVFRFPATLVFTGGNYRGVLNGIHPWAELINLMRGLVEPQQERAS

Measured: binding result

T4 sequence (P10371 whole entry): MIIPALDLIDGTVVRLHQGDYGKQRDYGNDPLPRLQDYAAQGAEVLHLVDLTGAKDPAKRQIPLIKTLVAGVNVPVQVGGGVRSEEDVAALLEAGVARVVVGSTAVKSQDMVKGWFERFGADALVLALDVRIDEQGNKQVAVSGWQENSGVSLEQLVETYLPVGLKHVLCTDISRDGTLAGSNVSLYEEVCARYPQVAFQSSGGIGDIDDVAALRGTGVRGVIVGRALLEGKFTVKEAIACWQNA

B1: N-terminal biotinylated Lactoferricin B (peptide, UniProt P24627 36-60, looked up)
peptide: Biotin-FKCRRWQWRMKKLGAPSITCVRRAF
modifications: ends and bridges not checked
notes: lactoferricin B (LfcinB), cationic antimicrobial peptide of 25 amino acids; also called biotinylated LfcinB; biotin-labeled LfcinB; source: bought: Kelowna Inc
binds: all assays above
